Paper PMC8025885, “Cryo-EM of kinesin-binding protein: challenges and opportunities from protein-surface interactions” (Acta Crystallographica. Section D, Structural Biology, 2021)
One block for each binder: values may come before it.

Assays:
[1] = target: T1, kinesin-binding protein (human, UniProt Q96EK5 1-621); experiment: cryo-EM structure; rigid KBP-full–KIF15_MD6S subset of particles from GO-coated holey gold grids; 6.9 Å reconstruction; details: both partners purified
T1 construct: The 6xHis tag is thrombin-cleavable; also called KBP; KBP-full; source: E. coli Rosetta2, purified (IMAC, SEC)
T1 sequence (looked up): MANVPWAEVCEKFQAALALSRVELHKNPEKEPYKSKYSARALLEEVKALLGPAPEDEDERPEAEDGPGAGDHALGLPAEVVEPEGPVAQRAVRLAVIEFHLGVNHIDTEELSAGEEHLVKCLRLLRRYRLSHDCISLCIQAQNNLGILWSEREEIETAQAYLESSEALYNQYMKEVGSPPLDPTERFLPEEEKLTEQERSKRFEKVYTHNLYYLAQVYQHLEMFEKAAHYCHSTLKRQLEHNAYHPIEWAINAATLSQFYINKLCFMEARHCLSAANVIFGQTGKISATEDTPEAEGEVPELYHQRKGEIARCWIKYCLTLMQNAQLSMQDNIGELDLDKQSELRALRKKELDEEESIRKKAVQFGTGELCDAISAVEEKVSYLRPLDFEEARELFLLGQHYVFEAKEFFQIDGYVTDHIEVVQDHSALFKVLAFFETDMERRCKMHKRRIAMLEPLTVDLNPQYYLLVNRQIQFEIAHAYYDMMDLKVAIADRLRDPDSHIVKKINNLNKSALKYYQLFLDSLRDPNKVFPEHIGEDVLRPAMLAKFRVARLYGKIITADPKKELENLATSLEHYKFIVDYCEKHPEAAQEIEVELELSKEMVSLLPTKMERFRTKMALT

[2] = target: T1, kinesin-binding protein; experiment: pull-down; complex purified via IMAC using the 6xHis tag on the kinesin construct after incubation with a tenfold excess of KBP; SDS-PAGE of the purified complex; details: both partners purified

binding result [1]: binds
B1: cysteine-light human KIF15 motor domain and neck linker construct (domain or fragment, UniProt Q9NS87 1-375, looked up)
chain: MAPGSKTELRSVTNGQSNQPSNEGDAIKVFVRIRPPAERSGSADGEQNLSLSVLSSTSLRLHSNPEPKTFTFDHVADVDTTQESVFATVAKSIVESCMSGYNGTIFAYGQTGSGKTFTMMGPSESDNFSHNLRGVIPRSFEYLFSLIDREKEKAGAGKSFLSKCSFIEIYNEQIYDLLDSASAGLYLREHIKKGVFVVGAVEQVVTSAAEAYQVLSGGWRNRRVASTSMNRESSRSHAVFTITIESMEKCNEIVNIRTSLLNLVDLAGSERQKDTHAEGMRLKEAGNINRSLSSLGQVITALVDVGNGKQRHVSYRDSKLTFLLRDSLGGNAKTAIIANVHPGSRSFGETLSTLNFAQRAKLIKNKAVVNEDTQC
notes: kinesin-12 KIF15, human, motor domain and neck linker, residues 1-375, six of eight cysteines mutated to serine and two cysteines introduced; also called KIF15_MD6S; source: pET-21a vector, expressed and purified as described previously (Rosenfeld et al., 2005); not shown: His6, C-terminal, kept

binding result [2]: binds
B2: human KIF1A motor domain and neck linker construct (domain or fragment, UniProt Q12756 1-362, looked up)
chain: MAGASVKVAVRVRPFNSREMSRDSKCIIQMSGSTTTIVNPKQPKETPKSFSFDYSYWSHTSPEDINYASQKQVYRDIGEEMLQHAFEGYNVCIFAYGQTGAGKSYTMMGKQEKDQQGIIPQLCEDLFSRINDTTNDNMSYSVEVSYMEIYCERVRDLLNPKNKGNLRVREHPLLGPYVEDLSKLAVTSYNDIQDLMDSGNKARTVAATNMNETSSRSHAVFNIIFTQKRHDAETNITTEKVSKISLVDLAGSERADSTGAKGTRLKEGANINKSLTTLGKVISALAEMDSGPNKNKKKKKTDFIPYRDSVLTWLLRENLGGNSRTAMVAALSPADINYDETLSTLRYADRAKQIRCNAVINE
notes: kinesin-3 KIF1A, human, motor domain and neck linker, residues 1-362; The HaloTag is TEV protease-cleavable; the printed size of the motor domain (about 40 kDa); source: E. coli BL21-Gold (DE3), purified (IMAC, SEC); not shown: His6, C-terminal, kept
